Laboratory results as given in publication doi:10.1101/2020.07.01.182063.

Assays:
Experiment in all cases: fluorescence polarisation
[1] = molecular target: HIM-3 closure motif peptide phosphorylated at Tyr279 (C. elegans)
[2] = molecular target: HIM-3 closure motif peptide with the S282A substitution (C. elegans)
[3] = molecular target: HIM-3 closure motif peptide, unmodified (wild type) (C. elegans)

Kd [1]: 16.1 µM
Kd [2]: 11.3 µM
Kd [3]: 5.8 µM
Substance: HTP-2 protein (full length) (natural protein)
